Results on four molecules are retold here after patent US5912120A, “Cloning, expression and diagnosis of human cytochrome P450 2C19: the principal determinant of s-mephenytoin metabolism” (The United States of America as represented by the …, priority 1994, dated 1999).

Bounds are passed on as bounds.

Series [1] addresses cytochrome P450 2C9, allelic variant clone 25 (Leu359) (human).
Series [2] deals with cytochrome P450 2C9, allelic variant clone 65 (Ile359) (human).
Series [3] in a line: Mephenytoin 4'-hydroxylase assay, recombinant human CYP2C yeast microsomes (Table III). The series is classed as biochemical. The settings on record: recombinant yeast microsomes + P450 reductase, phospholipid, cytochrome b5 2:1; 0.4 mM substrate, HEPES pH 7.4, 37° C. 30 min; means ± SE.
Experimental: (§1) Purified or recombinant yeast microsomes (10-50 pmol) were preincubated with dilauroylphosphatidylcholine (15 μg per 50 pmol P450), P450 reductase (500 U per 50 mol P450), and human cytochrome b5 (2:1 molar ratio when added). The reconstituted mixture was preincubated for 5 min at 37° C., and then placed on ice. A final concentration of 0.4 mM radiolabelled S- or R-mephenytoin (20.7 mCi/mM and 20.9 mCi/mMol) was added to 50 mM HEPES buffer (pH 7.4) containing 0.1 mM EDTA and 1.5 mM MgCl2 for recombinant 2C proteins. The mixture was then incubated at 37° with shaking for 3 min, and the reaction started with the addition of 2mM NADPH and terminated after 30 min with an equal volume of methanol. […] Reaction volumes were generally 0.25 ml except when the volume of recombinant purified cytochrome or yeast microsomes was greater than 50 μl. In these cases, the volume was increased to 0.5 ml to limit the volume of glycerol from the purified preparation to <4% of the final volume.
Experiment in series [4]: as above
The settings on record: for Mephenytoin 4'-Hydroxylase Activity S: recombinant yeast microsomes + P450 reductase, phospholipid, cytochrome b5 2:1, 0.4 mM substrate, HEPES pH 7.4, 37° C. 30 min, means ± SE; for R/S Ratio: with cytochrome b5. The series is classed as biochemical.
Experimental: as §1

A short description of series [5]: Mephenytoin 4'-hydroxylase assay, purified recombinant P450 2C in reconstituted system (Table IV). The settings on record: for R/S Ratio / Mephenytoin 4'-Hydroxylase Activity S: purified P450, reconstituted system; for Mephenytoin 4'-Hydroxylase Activity S / Mephenytoin 4'-Hydroxylase Activity R: triplicate, means ± SE, blank not subtracted. The class given is biochemical. As for the experimental part: Recombinant yeast microsomes were prepared from a 10-12 l culture, and recombinant P450s were purified by aminooctylsepharose chromatography as described by Iwasaki et al., J. Biol. Chem. 226:3380-3382 (1991). The Emulgen was then removed from protein by adsorption of the protein to a 4 g hydroxylapatite column (Hypatite C, Clarkson Chemical Company, Williamsport, Pa.) equilibrated with 10 mM potassium phosphate buffer (pH 7.2), 20% glycerol, 0.1 mM EDTA, and 0.1 mM DTT and washing the column with the same buffer until the absorbance at 280 nm returned to zero. The P450 was then eluted with […], and dialyzed overnight against 100 mM potassium phosphate buffer (pH 7.4, 20% glycerol and 0.1 mM EDTA. Absolute and CO difference spectra of purified P450s were determined in the same buffer but containing 0.2% Emulgen and 0.5% cholate.
Mephenytoin 4'-hydroxylase activity was measured by a modification of the radiometric HPLC assay described by Shimada et al., J. Biol. Chem. 261:909-921 (1986), as described below. Purified or recombinant yeast microsomes (10-50 pmol) were preincubated with dilauroylphosphatidylcholine (15 μg per 50 pmol P450), P450 reductase (500 U per […] P450), and human cytochrome b5 (2:1 molar ratio when added). The reconstituted mixture was preincubated for 5 min at 37° C., and then placed on ice. A final concentration of 0.4 mM radiolabelled S- or R-mephenytoin (20.7 mCi/mM and 20.9 mCi/mMol) was added to 50 mM HEPES buffer (pH 7.4) containing 0.1 mM EDTA and 1.5 mM MgCl2 for recombinant 2C proteins. The mixture was then incubated at 37° with shaking for 3 min, and the reaction started with the addition of 2mM NADPH and terminated after 30 min with an equal volume of methanol. Cytochrome b5 was not included in all CYP2C18 reactions, since it had no effect or produced a slight inhibition on the activity of this CYP protein. Reaction volumes were generally 0.25 ml except when the volume of recombinant purified cytochrome or yeast microsomes was greater than 50 μl. In these cases, the volume was increased to 0.5 ml to limit the volume of glycerol from the purified preparation to <4% of the final volume.
At the end of the incubation period, the reactions were terminated with an equal volume of methanol. The incubation mixture was centrifuged at 10,000 g for 10 min and an aliquot assayed directly using HPLC without extraction. Samples with particularly low activity were concentrated by lyophilization and redissolved in a small volume of methanol:water (1:1) before assay. The HPLC system consisted of a reverse phase C18 (10 μm) Versapak, 300 mm×4.1 mm column (Altech Associates, Deerfield, Ill.) using an isocratic solvent consisting of methanol:water (45:55) with a flow rate was kept of 1 ml/min for 25 min. Detection of radioactive peaks was accomplished using an on-line Flow-One radiochemical detector (Radiomatic Instruments Co., Tampa, Fla. Detection of the unlabeled 4'-hydroxymephenytoin authentic standard was performed using an on-line multiwavelength UV detector at both 211 and 230 nm.
Recombinant P450s were purified from yeast microsomes and assays performe

The nature of series [6]: Tolbutamide hydroxylase assay, recombinant human CYP2C yeast microsomes (Table V). The series is classed as biochemical. The settings on record: for Tolbutamide Hydroxylase Activity (nmol/min/mg protein) / Tolbutamide Hydroxylase Activity (nmol/min/nmol P450): 1 mg yeast microsomal protein + purified P450 reductase (1,000 units); for Tolbutamide Hydroxylase Activity (nmol/min/mg protein): means ±SE.
Experimental: Tolbutamide hydroxylase activity was measured according to Knodell et al., J. Pharmacol. Exper. […] Yeast microsomes (1 mg protein) were preincubated with 300 pmol hamster P450 reductase in 0.2 ml of the incubation buffer (below) for 3 min at 37° C. The reaction was then placed on ice and incubated in 0.2 ml of 50 mM HEPES buffer (pH 7.4) containing 1.5 mM MgCl2, 0.1 mM EDTA in a final volume of 1 ml and 1 mM sodium tolbutamide. The reaction was initiated with 0.5 mM NADPH. Human liver microsomes (0.22 mg protein) were incubated without reductase. Incubations with reconstituted recombinant P450s contained 50 pmol purified P450 enzyme, 150 pmol P450 reductase, and 15 μg dilauroylphosphatidyl-choline, and were performed in 100 mM potassium phosphate buffer (pH 7.4). Reactions were terminated after 60 min at 37° C. by the addition of 50 μl of 4N HCl, followed by extraction with 3 ml of water-saturated ethyl acetate. The ethyl acetate extracts were dried under nitrogen at 40° C., the residue resolubilized in 200 μl methanol, and 4-hydroxytolbutamide then assayed using HPLC by injecting 50 μl of the solubilized extract onto a μBONDAPAK C18 column (4.6×300 mm) using 0.05% phosphoric acid, pH 2.6: acetonitrile (6:4, v/v) as the mobile phase with a flow rate of 1 ml/min. The column eluate was monitored at 230 nm and rates of product formation were determined from standard curves prepared by adding varying amounts of 4-hydroxytolbutamide to incubations conducted without NADPH. […] Samples were analyzed in triplicate.

Series [7] can be described thus: Tolbutamide hydroxylase assay, purified recombinant P450 2C (Table IV). The class given is biochemical. Conditions: purified P450, reconstituted; blank (22 ± 5) subtracted; means ± SE.
Experimental: Tolbutamide hydroxylase activity was measured according to Knodell et al., J. Pharmacol. Exper. Ther. 241:1112-1119 (1987), with several modifications. Yeast microsomes (1 mg protein) were preincubated with 300 pmol hamster P450 reductase in 0.2 ml of the incubation buffer (below) for 3 min at 37° C. The reaction was then placed on ice and incubated in 0.2 ml of 50 mM HEPES buffer (pH 7.4) containing 1.5 mM MgCl2, 0.1 mM EDTA in a final volume of 1 ml and 1 mM sodium tolbutamide. The reaction was initiated with 0.5 mM NADPH. Human liver microsomes (0.22 mg protein) were incubated without reductase. Incubations with reconstituted recombinant P450s contained 50 pmol purified P450 enzyme, 150 pmol P450 reductase, and 15 μg dilauroylphosphatidyl-choline, and were performed in 100 mM potassium phosphate buffer (pH 7.4). Reactions were terminated after 60 min at 37° C. by the addition of 50 μl of 4N HCl, followed by extraction with 3 ml of water-saturated ethyl acetate. […] The column eluate was monitored at 230 nm and rates of product formation were determined from standard curves prepared by adding varying amounts of 4-hydroxytolbutamide to incubations conducted without NADPH. […] Samples were analyzed in triplicate.

On to exogenous P450 reductase (enzyme), for which the metabolism of tolbutamide in series [1] and in series [2] was over 10 fold each time.

B1: 2C19 (11a): recombinant human cytochrome P450 2C19, clone 11a, amino acid sequence SEQ. ID. No. 1, expressed in yeast (protein)
chain: MDPFVVLVLCLSCLLLLSIWRQSSGRGKLPPGPTPLPVIGNILQIDIKDVSKSLTNLSKIYGPVFTLYFGLERMVVLHGYEVVKEALIDLGEEFSGRGHFPLAERANRGFGIVFSNGKRWKEIRRFSLMTLRNFGMGKRSIEDRVQEEARCLVEELRKTKASPCDPTFILGCAPCNVICSIIFQKRFDYKDQQFLNLMEKLNENIRIVSTPWIQICNNFPTIIDYFPGTHNKLLKNLAFMESDILEKVKEHQESMDINNPRDFIDCFLIKMEKEKQNQQSEFTIENLVITAADLLGAGTETTSTTLRYALLLLLKHPEVTAKVQEEIERVIGRNRSPCMQDRGHMPYTDAVVHEVQRYIDLIPTSLPHAVTCDVKFRNYLIPKGTTILTSLTSVLHDNKEFPNPEMFDPRHFLDEGGNFKKSNYFMPFSAGKRICVGEGLARMELFLFLTFILQNFNLKSLIDPKDLDTTPVVNGFASVPPFYQLCFIPV
For the molecule B1, the “Mephenytoin 4'-Hydroxylase Activity R” value in series [3] turned out to be 0.014 ± 0.02 nmol/min/nmol P450; in series [5], 0.19 ± 0.04 nmol/min/nmol P450. Besides, the “rate of S-hydroxylation higher than that of R-hydroxylation” value in series [4] (recombinant yeast microsomes) is “at least 30 fold”. Besides, the “stereospecificity of 4'-hydroxylation of mephenytoin” value is “stereospecific” in series [4] (recombinant yeast microsomes (Table III)) and “stereospecific for the S-enantiomer” in series [5] (purified, reconstituted system (Table IV)). Further, the figures for the “Mephenytoin 4'-Hydroxylase Activity S” value in series [4], in series [4] (listed as 2C19) and in series [5] were 4.6 ± 0.3 nmol/min/nmol P450, ~ 5 nmol/min/nmol P450 and 6.17 ± 0.24 nmol/min/nmol P450, respectively. Moreover, the “R/S Ratio” value in series [4] (recombinant yeast microsomes) and in series [5] was 0.03 throughout. Further, the “S-mephenytoin 4'-hydroxylation turnover number higher than that of recombinant 2C9, 2C18 or 2C8” value in series [5] (purified, reconstituted system) is recorded as 50-100 times. Besides, the “S-mephenytoin 4'-hydroxylase turnover number higher than reported for P450MP purified from human liver” value in series [5] (versus Srivastava et al. (1991)) is recorded as ~ 30 times. Further, in series [5] (versus human liver microsomes), the “S-mephenytoin 4'-hydroxylation turnover number higher than that of human liver microsomes” value is given as “at least 10 times”. Moreover, the “Tolbutamide Hydroxylase Activity (nmol/min/mg protein)” value in series [6] was determined as 18.4 ± 2.4 nmol/min/mg protein. Besides, in series [6] (recombinant yeast microsomes, in words), the “tolbutamide hydroxylase activity compared with 2C9” value is on record as “comparable to that of 2C9”.

B2: 2C8: recombinant human cytochrome P450 2C8 (clones 7b and 7c) expressed in yeast (protein)
chain: MEPFVVLVLCLSFMLLFSLWRQSCRRRKLPPGPTPLPIIGNMLQIDVKDICKSFTNFSKVYGPVFTVYFGMNPIVVFHGYEAVKEALIDNGEEFSGRGNSPISQRITKGLGIISSNGKRWKEIRRFSLTNLRNFGMGKRSIEDRVQEEAHCLVEELRKTKASPCDPTFILGCAPCNVICSVVFQKRFDYKDQNFLTLMKRFNENFRILNSPWIQVCNNFPLLIDCFPGTHNKVLKNVALTRSYIREKVKEHQASLDVNNPRDFMDCFLIKMEQEKDNQKSEFNIENLVGTVADLFVAGTETTSTTLRYGLLLLLKHPEVTAKVQEEIDHVIGRHRSPCMQDRSHMPYTDAVVHEIQRYSDLVPTGVPHAVTTDTKFRNYLIPKGTTIMALLTSVLHDDKEFPNPNIFDPGHFLDKNGNFKKSDYFMPFSAGKRICAGEGLARMELFLFLTTILQNFNLKSVDDLKNLNTTAVTKGIVSLPPSYQICFIPV
As to B2, the “Mephenytoin 4'-Hydroxylase Activity R” value in series [3] turned out to be 0.016 ± 0.001 nmol/min/nmol P450; in series [5] it was 0.023 ± 0.004 nmol/min/nmol P450. For the same molecule, the entries for the “Mephenytoin 4'-Hydroxylase Activity S” value in series [4] and in series [5] were 0.037 ± 0.001 nmol/min/nmol P450 and 0.057 ± 0.009 nmol/min/nmol P450, respectively. Further, the “R/S Ratio” value in series [4] (recombinant yeast microsomes) and in series [5] was 0.4 throughout. In series [7], the “Tolbutamide Hydroxylase Activity” value worked out at 12 ± 4 pmol/min/nmol P450. Moreover, in series [6] (adjusted for P450 content), the “Tolbutamide Hydroxylase Activity (nmol/min/nmol P450)” value amounted to 0.11 ± 0.003 nmol/min/nmol P450. Besides, the “Tolbutamide Hydroxylase Activity (nmol/min/mg protein)” value in series [6] is on record as 8.5 ± 0.2 nmol/min/mg protein.

B3: 2C9-Ile^359 (65): recombinant human P450 2C9 allelic variant, clone 65, expressed in yeast (protein, UniProt P11712 1-490, looked up)
Cytochrome P450 2C9: MDSLVVLVLCLSCLLLLSLWRQSSGRGKLPPGPTPLPVIGNILQIGIKDISKSLTNLSKVYGPVFTLYFGLKPIVVLHGYEAVKEALIDLGEEFSGRGIFPLAERANRGFGIVFSNGKKWKEIRRFSLMTLRNFGMGKRSIEDRVQEEARCLVEELRKTKASPCDPTFILGCAPCNVICSIIFHKRFDYKDQQFLNLMEKLNENIKILSSPWIQICNNFSPIIDYFPGTHNKLLKNVAFMKSYILEKVKEHQESMDMNNPQDFIDCFLMKMEKEKHNQPSEFTIESLENTAVDLFGAGTETTSTTLRYALLLLLKHPEVTAKVQEEIERVIGRNRSPCMQDRSHMPYTDAVVHEVQRYIDLLPTSLPHAVTCDIKFRNYLIPKGTTILISLTSVLHDNKEFPNPEMFDPHHFLDEGGNFKKSKYFMPFSAGKRICVGEALAGMELFLFLTSILQNFNLKSLVDPKNLDTTPVVNGFASVPPFYQLCFIPV
Turning to B3, the “Mephenytoin 4'-Hydroxylase Activity R” value stood at 0.041 ± 0.005 nmol/min/nmol P450 in series [3] and 0.063 ± 0.003 nmol/min/nmol P450 in series [5]. In addition, the “Mephenytoin 4'-Hydroxylase Activity S” value in series [4] is 0.043 ± 0.000 nmol/min/nmol P450; in series [5], 0.081 ± 0.006 nmol/min/nmol P450. Further, the “R/S Ratio” value is 0.9 in series [4] (recombinant yeast microsomes) and 0.77 in series [5]. Also, the “Tolbutamide Hydroxylase Activity” value in series [7] is 122 + 29 pmol/min/nmol P450. Besides, the “Tolbutamide Hydroxylase Activity (nmol/min/nmol P450)” value in series [6] (adjusted for P450 content) was 3.4 ± 0.15 nmol/min/nmol P450. Besides, the “turnover number for tolbutamide higher than the Leu^359 allele” value in series [6] (recombinant microsomes, adjusted for P450 content) is 3 fold.
